# Measurements published in patent US7041457B2, “Gαq protein variants and their use in the analysis and discovery of agonists and antagonists of chemosensory receptors” (Senomyx, Inc., priority 2000, dated 2006).
# Residue numbers refer to the chain shown, from its start.
# T1: bitter receptor mT2R5 (Mus musculus, UniProt Q9JKT4)
# T1 construct: expressed in transfected cells
# T1 sequence (Q9JKT4 1-300): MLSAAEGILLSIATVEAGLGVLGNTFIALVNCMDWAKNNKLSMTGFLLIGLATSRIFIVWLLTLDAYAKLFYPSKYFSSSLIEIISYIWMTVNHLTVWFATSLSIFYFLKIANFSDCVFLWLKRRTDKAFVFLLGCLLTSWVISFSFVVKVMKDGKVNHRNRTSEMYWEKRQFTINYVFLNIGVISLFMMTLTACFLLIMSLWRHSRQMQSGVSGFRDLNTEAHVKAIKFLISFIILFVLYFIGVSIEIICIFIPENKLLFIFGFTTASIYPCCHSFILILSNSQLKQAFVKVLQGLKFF
# T2: mouse olfactory receptor 17 (Mus musculus, UniProt Q9QWU6)
# T2 construct: expressed in transfected cells
# T2 sequence (Q9QWU6 1-327): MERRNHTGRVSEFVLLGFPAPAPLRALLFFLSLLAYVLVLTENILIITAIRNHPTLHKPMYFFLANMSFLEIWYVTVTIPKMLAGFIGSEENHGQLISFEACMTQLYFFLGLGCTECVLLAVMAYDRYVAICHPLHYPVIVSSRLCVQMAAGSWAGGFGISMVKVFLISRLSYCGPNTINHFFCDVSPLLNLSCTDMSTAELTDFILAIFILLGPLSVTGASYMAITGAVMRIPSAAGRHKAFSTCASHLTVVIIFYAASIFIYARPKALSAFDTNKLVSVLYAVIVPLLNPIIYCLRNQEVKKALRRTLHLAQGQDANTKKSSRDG
# B1: MGq (HV-HA)-t5: mouse Gαq HV-HA with C-terminal five amino acids of transducin, SEQ ID NO:12 (protein, listed as Mus sp.)
# chain: MTLESIMACCLSEEAKEARRINDEIERHVRRDKRDARRELKLLLLGTGESGKSTFIKQMRIIHGSGYSDEDKRGFTKLVYQNIFTAMQAMIRAMDTLKIPYKYEHNKAHAQLVREVDVEKVSAFDVPDYAAIKSLWNDPGIQECYDRRREYQLSDSTKYYLNDLDRVADPSYLPTQQDVLRVRVPTTGIIEYPFDLQSVIFRMVDVGGQRSERRKWIHCFENVTSIMFLVALSEYDQVLVESDNENRMEESKALFRTIITYPWFQNSSVILFLNKKDLLEEKIMYSHLVDYFPEYDGPQRDAQAAREFILKMFVDLNPDSDKIIYSHFTCATDTENIRFVFAAVKDTILQLNLKDCGLF
# modifications: HA tag; transducin C-terminal five residues
# B2: MGq (HVD-HA)-t5: mouse Gαq HVD-HA with C-terminal five amino acids of transducin, SEQ ID NO:13 (protein, listed as Mus sp.)
# chain: B1 chain with G66D
# modifications: HA tag; transducin C-terminal five residues
# B3: MGq (ΔN-HVD-HA)-t44: mouse Gαq ΔN-HVD-HA with C-terminal 44 amino acids of transducin, SEQ ID NO:7 (protein, listed as Mus sp.)
# chain: MACCLSEEAKEARRINDEIERHVRRDKRDARRELKLLLLGTGESGKSTFIKQMRIIHGSGYSDEDKRGFTKLVYQNIFTAMQAMIRAMDTLKIPYKYEHNKAHAQLVREVDVEKVSAFDVPDYAAIKSLWNDPGIQECYDRRREYQLSDSTKYYLNDLDRVADPSYLPTQQDVLRVRVPTTGIIEYPFDLQSVIFRMVDVGGQRSERRKWIHCFENVTSIMFLVALSEYDQVLVESDNENRMEESKALFRTIITYPWFQNSSVILFLNKKDLLEEKIMYSHLVDYFPEYDGPQRDAQAAREFILKMFVDLNPDNMRRDVKEIYSHMTCATDTQNVKFVFDAVTDIIIKENLKDCGLF
# modifications: HA tag; transducin C-terminal 44 residues
# B4: HGq: human Gαq protein, SEQ ID NO:15 (protein, listed as Homo sapiens)
# chain: MTLESIMACCLSEEAKEARRINDEIERQLRRDKRDARRELKLLLLGTGESGKSTFIKQMRIIHGSGYSDEDKRGFTKLVYQNIFTAMQAMIRAMDTLKIPYKYEHNKAHAQLVREVDVEKVSAFENPYVDAIKSLWNDPGIQECYDRRREYQLSDSTKYYLNDLDRVADPAYLPTQQDVLRVRVPTTGIIEYPFDLQSVIFRMVDVGGQRSERRKWIHCFENVTSIMFLVALSEYDQVLVESDNENRMEESKALFRTIITYPWFQNSSVILFLNKKDLLEEKIMYSHLVDYFPEYDGPQRDAQAAREFILKMFVDLNPDSDKINYSHFTCATDTENIRFVFAAVKDTILQLNLKEYNAV
# B5: HGq (ΔN): human Gαq with truncation of N-terminal six amino acids, SEQ ID NO:16 (protein, listed as Homo sapiens)
# chain: MACCLSEEAKEARRINDEIERQLRRDKRDARRELKLLLLGTGESGKSTFIKQMRIIHGSGYSDEDKRGFTKLVYQNIFTAMQAMIRAMDTLKIPYKYEHNKAHAQLVREVDVEKVSAFENPYVDAIKSLWNDPGIQECYDRRREYQLSDSTKYYLNDLDRVADPAYLPTQQDVLRVRVPTTGIIEYPFDLQSVIFRMVDVGGQRSERRKWIHCFENVTSIMFLVALSEYDQVLVESDNENRMEESKALFRTIITYPWFQNSSVILFLNKKDLLEEKIMYSHLVDYFPEYDGPQRDAQAAREFILKMFVDLNPDSDKIIYSHFTCATDTENIRFVFAAVKDTILQLNLKEYNAV
# B6: MGq (ΔN-HVD-HA)-t5: mouse Gαq ΔN-HVD-HA with C-terminal five amino acids replaced by those of transducin, SEQ ID NO:6 (protein, listed as Mus sp.)
# chain: MACCLSEEAKEARRINDEIERHVRRDKRDARRELKLLLLGTGESGKSTFIKQMRIIHGSGYSDEDKRGFTKLVYQNIFTAMQAMIRAMDTLKIPYKYEHNKAHAQLVREVDVEKVSAFDVPDYAAIKSLWNDPGIQECYDRRREYQLSDSTKYYLNDLDRVADPSYLPTQQDVLRVRVPTTGIIEYPFDLQSVIFRMVDVGGQRSERRKWIHCFENVTSIMFLVALSEYDQVLVESDNENRMEESKALFRTIITYPWFQNSSVILFLNKKDLLEEKIMYSHLVDYFPEYDGPQRDAQAAREFILKMFVDLNPDSDKIIYSHFTCATDTENIRFVFAAVKDTILQLNLKDCGLF
# modifications: HA tag; transducin C-terminal five residues
# B7: MGq (ΔN-HVD-HA)-olf5: mouse Gαq ΔN-HVD-HA with C-terminal five amino acids of Gαolf, SEQ ID NO:14 (protein, listed as Mus sp.)
# chain: B6 chain with G60D, D349Q, C350Y, G351E, F353L
# modifications: HA tag; Gαolf C-terminal five residues
# What was measured:
# bitter receptor mT2R5 = target: T1, bitter receptor mT2R5; experiment: Functional coupling of Gq variants with bitter taste receptor mT2R5 (mammalian cell-based systems and Xenopus oocytes, calcium imaging)
# From the text: (§1) The present invention addresses the above described problems associated with using Gα15/α16, as well as other problems known in the art relating to the use of weakly promiscuous Gα proteins. […] According to the invention, the functional coupling can be determined, for example, by measuring changes in intracellular IP3 or calcium. In a particular embodiment, the Gq protein variants can be expressed in mammalian cell lines or Xenopus oocytes, and then evaluated using calcium fluorescence imaging and electrophysiological recording.
# (§2) It was found by functional analysis using single-cell calcium imaging that activation of multi-family GPCRs evoked increases in cytosolic calcium in the presence of the Gαq variants with the G66D mutation. These GPCRs include Gαs-coupled β-adrenergic receptor, Gαolf-coupled mouse 17 olfactory receptor, Gαi-coupled m2 muscarinic receptor, and gustducin-coupled bitter receptor mT2R5. No significant change in cytosolic calcium could be detected by activation of the above GPCRs in the absence of the Gαq variants. Additional GPCRs can include those disclosed in U.S. patent application Ser. No. 09/510,332 filed Feb. 22, 2000 now abandoned; and U.S. Provisional Application Nos. 60/213,849 filed Jun. 23, 2000; 60/209,840 filed Jun. 6, 2000; 60/195,536 filed Apr. 7, 2000; 60/195,534 filed Apr. 7, 2000; 60/195,532 filed Apr. 7, 2000; which are herein incorporated by references for all purposes in a manner consistent with this disclosure.
# A series of Gαq protein variants having the sequences listed in FIG. 3 were constructed and tested in mammalian cell-based systems and in Xenopus oocytes for functional coupling efficiency with bitter receptor mT2R5 and mouse olfactory receptor 17.
# [1] = target: T2, mouse olfactory receptor 17; experiment: Functional coupling of Gq variants with mouse olfactory receptor 17 (mammalian cell-based systems and Xenopus oocytes, calcium imaging); parameters: key to the marks not given beside the values
# From the text: as §1
# as §2, with “7, 2000; which are herein incorporated by references for all purposes in a manner consistent with this disclosure.” left out
Functional Activity With Taste Receptor MT2R5 (bitter receptor mT2R5),Functional Activity with Olfactory Receptor ml7 [1],Molecule
+,,B1
++,,B2
++,,B3
−,,B4
−,,B5
++,,B6
,++,B7
